From article PMC2887947
Like-named read-outs stand apart in the source and are kept apart here.

Experiments:
Test in all cases: EMSA
E. coli H-NS [1] = molecular target: T1, E. coli H-NS (Escherichia coli, UniProt P0ACF8 1-137)
T1 sequence: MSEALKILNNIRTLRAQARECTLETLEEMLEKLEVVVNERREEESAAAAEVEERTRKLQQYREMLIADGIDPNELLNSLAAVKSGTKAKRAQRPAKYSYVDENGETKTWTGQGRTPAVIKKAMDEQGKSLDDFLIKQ

M. tuberculosis H-NS [2] = molecular target: T2, M. tuberculosis H-NS (Mycobacterium tuberculosis H37Rv, UniProt I6YHB0 1-134)
T2 sequence: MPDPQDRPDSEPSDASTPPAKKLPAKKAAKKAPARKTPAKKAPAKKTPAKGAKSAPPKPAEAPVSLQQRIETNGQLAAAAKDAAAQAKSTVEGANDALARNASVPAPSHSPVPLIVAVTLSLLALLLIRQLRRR

M. tuberculosis H-NS [3] = molecular target: T2, M. tuberculosis H-NS; remark: listed apart in the source
E. coli H-NS [4] = molecular target: T1, E. coli H-NS; remark: listed apart in the source
M. tuberculosis H-NS [5] = molecular target: T2, M. tuberculosis H-NS; remark: listed apart in the source
M. tuberculosis H-NS [6] = molecular target: T2, M. tuberculosis H-NS; remark: listed apart in the source

B1: Holliday junction (HJ) (structured_DNA)
DNA 1: GCCGTGATCACCAATGCAGATTGACGAACCTTTGCCCACGT
DNA 2: GACGTGGGCAAAGGTTCGTCAATGGACTGACAGCTGCATGG
DNA 3: GCCATGCAGCTGTCAGTCCATTGTCATGCTAGGCCTACTGC
DNA 4: GGCAGTAGGCCTAGCATGACAATCTGCATTGGTGATCACGG
E. coli H-NS [1]
  binding result: binds
M. tuberculosis H-NS [2]
  Kd: ~32 nM

B2: DNA replication fork (structured_DNA)
DNA 1: GACGTGGGCAAAGGTTCGTCAATGGACTGACAGCTGCATGG
DNA 2: GCCATGCAGCTGTCAGTCCATTGTCATGCTAGGCCTACTGC
DNA 3: GCAGTAGGCCTAGCATGA
DNA 4: CGAACCTTTGCCCACGTC
M. tuberculosis H-NS [3]
  binding signal: ~6 fold higher Kd than HJ
E. coli H-NS [4]
  binding result: binds

B3: Y-shaped junction (structured_DNA)
DNA 1: GACGTGGGCAAAGGTTCGTCAATGGACTGACAGCTGCATGG
DNA 2: GCCATGCAGCTGTCAGTCCATTGTCATGCTAGGCCTACTGC
M. tuberculosis H-NS [5]
  binding signal: ~7 fold higher Kd than HJ

B4: dsDNA 70% GC (83 bp) (dsDNA)
DNA 1: GCGGTGGACGGCTGGGTCGGGTGGTGAGTGGGTTGCGATGGAGGTGGTGGGCTAGGGGGCTTAGGGGGGAGTCGGTGGTGG
DNA 2: CCACCACCGACTCCCCCCTAAGCCCCCTAGCCCACCACCTCCCATCGCCAACCCACTCACCACCCGACCCAGCCGTCCACCGC
M. tuberculosis H-NS [6]
  binding signal: ~3 fold higher concentration for 50% binding than 40% GC dsDNA

B5: dsDNA 40% GC (83 bp) (dsDNA)
DNA 1: GTACTATACGGTTGTACAGTGTTGTTAGTGAGTTGAAGATTGGAAGTAGTTTGCTAGGTGTCTTAGGAGAGAATCGTTAGTGT
DNA 2: ACACTAACGATTCTCTCCTAAGACACCTAGCAAACTACTTCCAATCTTCAACTCACTAACAACACTGTACAACCGTATAGATC
M. tuberculosis H-NS [2]
  binding result: binds
